Data on one molecule can be found in publication PMC2504289.

The target in the data set is T1, CH1° 0p (unphosphorylated C-terminal domain of histone H1°) (UniProt P10922 98-194).
T1 sequence: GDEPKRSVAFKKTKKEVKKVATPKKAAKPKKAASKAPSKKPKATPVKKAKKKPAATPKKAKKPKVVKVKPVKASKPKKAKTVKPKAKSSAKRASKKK
Kind of data set: EMSA.

B1: 50 bp dsDNA fragment (dsDNA)
DNA 1: CTATGATATATAGATAGTTAATGTAATATGATATAGATATAGGGATCC
DNA 2: GGATCCCTATATCTATATCATATTACATTAACTATCTATATATCATAG
B1: the binding result was “binds”.
